The source of these data is US20070207967A1, “Peptide Inhibitors of Matrix Metalloproteinase Activity” (CTT CANCER TARGETING TECHNOLOGIES OY, priority 2004, published 2007).

The test addresses β2 integrin on THP-1 cells (human) (UniProt P05107). Kind of test: THP-1 cell binding to immobilized KIM127 (competitor) with C domain 50 µg/ml.

Sequence of β2 integrin on THP-1 cells (human) (P05107 23-769): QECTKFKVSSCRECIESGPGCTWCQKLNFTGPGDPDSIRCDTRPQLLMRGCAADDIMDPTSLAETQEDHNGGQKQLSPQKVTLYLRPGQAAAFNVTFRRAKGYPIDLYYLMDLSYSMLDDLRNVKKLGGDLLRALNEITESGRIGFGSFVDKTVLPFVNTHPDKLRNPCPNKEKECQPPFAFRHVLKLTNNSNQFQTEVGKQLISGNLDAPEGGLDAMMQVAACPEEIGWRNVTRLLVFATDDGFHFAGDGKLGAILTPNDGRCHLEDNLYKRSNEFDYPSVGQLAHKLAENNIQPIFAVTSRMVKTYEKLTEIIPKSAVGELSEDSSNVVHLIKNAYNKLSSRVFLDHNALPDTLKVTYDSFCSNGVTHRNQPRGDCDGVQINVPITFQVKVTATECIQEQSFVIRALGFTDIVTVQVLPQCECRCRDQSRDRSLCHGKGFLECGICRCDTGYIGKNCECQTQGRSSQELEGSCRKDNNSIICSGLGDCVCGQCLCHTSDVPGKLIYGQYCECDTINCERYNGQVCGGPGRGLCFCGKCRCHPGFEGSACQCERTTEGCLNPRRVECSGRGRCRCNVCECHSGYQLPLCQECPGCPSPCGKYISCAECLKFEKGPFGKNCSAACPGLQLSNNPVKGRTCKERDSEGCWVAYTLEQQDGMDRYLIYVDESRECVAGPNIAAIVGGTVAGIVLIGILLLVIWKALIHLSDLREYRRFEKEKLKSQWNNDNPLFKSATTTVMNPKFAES

As for “recombinant MMP-9 C-terminal hemopexin-like domain (Asp494-Asp688) (from UniProt P14780 513-707)”, the % inhibition of THP-1 cell binding to KIM127 is 40%.
